Experimental data as given in the Immune Epitope Database (IEDB).

Assays:
HLA-B*18:01 [1] = experiment: IEDB peptide-MHC binding, purified MHC/direct/fluorescence; filed as Kd, often an IC50 or EC50 that approximates it; ≥ and ≤ were set here for values at or beyond the usual limits of such assays
HLA-B*44:02 [2] = experiment: as above
HLA-B*40:01 [3] = experiment: as above; conditions: source organism: Influenza A virus (A/SW/MN/12883/00(H1N2))
HLA-B*18:01 [4] = experiment: IEDB peptide-MHC binding, purified MHC/competitive/radioactivity; filed as Kd, often an IC50 or EC50 that approximates it; ≥ and ≤ were set here for values at or beyond the usual limits of such assays
HLA-B*44:02 [5] = experiment: as above
HLA-B*40:02 = experiment: as above
HLA-B*44:03 = experiment: as above
HLA-B*40:01 [6] = experiment: as above
HLA-B*45:01 = experiment: as above
HLA-A*24:03 = experiment: IEDB peptide-MHC binding, purified MHC/direct/fluorescence; filed as Kd, often an IC50 or EC50 that approximates it; ≥ and ≤ were set here for values at or beyond the usual limits of such assays; conditions: source organism: Mycobacterium tuberculosis
HLA-B*15:42 = experiment: IEDB peptide-MHC binding, purified MHC/competitive/fluorescence; filed as Kd, often an IC50 or EC50 that approximates it; ≥ and ≤ were set here for values at or beyond the usual limits of such assays
HLA-B*83:01 = experiment: as above
HLA-B*45:06 = experiment: as above
HLA-B*08:01 = experiment: IEDB peptide-MHC binding, purified MHC/direct/fluorescence; filed as Kd, often an IC50 or EC50 that approximates it; ≥ and ≤ were set here for values at or beyond the usual limits of such assays; conditions: source organism: Salmonella enterica subsp. enterica serovar Typhimurium str. LT2
HLA-A*26:01 = experiment: IEDB peptide-MHC binding, purified MHC/competitive/fluorescence; filed as Kd, often an IC50 or EC50 that approximates it; ≥ and ≤ were set here for values at or beyond the usual limits of such assays; conditions: source organism: Bacillus anthracis str. A0488
[7] = source organism: Influenza A virus (A/SW/MN/12883/00(H1N2))
[8] = source organism: Mammarenavirus machupoense
[9] = source organism: Mammarenavirus guanaritoense
[10] = source organism: SARS coronavirus Tor2
[11] = source organism: Mammarenavirus brazilense
[12] = source organism: Dengue virus 1 Singapore/S275/1990
[13] = source organism: Mycobacterium tuberculosis H37Rv
[14] = source organism: Mycobacterium tuberculosis C
[15] = source organism: human gammaherpesvirus 4
[16] = source organism: Mammarenavirus lassaense

**Q.** What does the source list for NEVGARILT?
**A.** Kd (HLA-B*18:01 [1]; [7]): 0.658 µM; Kd (HLA-B*44:02 [2]; [7]): ≥ 20 µM; Kd (HLA-B*40:01 [3]): ≥ 20 µM

**Q.** What does the source list for PDIGELFGL?
**A.** Kd (HLA-B*18:01 [4]; [8]): ≥ 77.5 µM; Kd (HLA-B*44:02 [5]; [8]): ≥ 77.9 µM; Kd (HLA-B*40:02; [8]): ≥ 22.1 µM; Kd (HLA-B*44:03; [8]): ≥ 66.6 µM; Kd (HLA-B*40:01 [6]; [8]): 12.7 µM; Kd (HLA-B*45:01; [8]): ≥ 77.7 µM

**Q.** What does the source list for PEFDWILGWT?
**A.** Kd (HLA-B*18:01 [4]; [9]): ≥ 70.4 µM; Kd (HLA-B*44:02 [5]; [9]): ≥ 70.2 µM; Kd (HLA-B*40:02; [9]): ≥ 23.6 µM; Kd (HLA-B*44:03; [9]): ≥ 28.1 µM; Kd (HLA-B*40:01 [6]; [9]): ≥ 69.5 µM; Kd (HLA-B*45:01; [9]): ≥ 70 µM

**Q.** How did the Kd (HLA-A*24:03) turn out when PYIDAADQF was run?
**A.** 0.0912 µM

**Q.** With QEAYYRARA as the sequence, how does the Kd (HLA-B*18:01 [4]; [10]) read?
**A.** ≥ 50.8 µM

**Q.** What about the Kd (HLA-B*44:02 [5]; [10]) of the same sequence?
**A.** 6.16 µM

**Q.** What about the Kd (HLA-B*40:02; [10]) of the same sequence?
**A.** 1.93 µM

**Q.** What about the Kd (HLA-B*44:03; [10]) of the same sequence?
**A.** 7.32 µM

**Q.** And the Kd (HLA-B*40:01 [6]; [10])?
**A.** 19.9 µM

**Q.** What about the Kd (HLA-B*45:01; [10]) of the same sequence?
**A.** 0.0151 µM

**Q.** Which results are given for QEIQLLAAVG?
**A.** Kd (HLA-B*18:01 [4]; [10]): 6.88 µM; Kd (HLA-B*44:02 [5]; [10]): 0.883 µM; Kd (HLA-B*40:02; [10]): 18 µM; Kd (HLA-B*44:03; [10]): 0.44 µM; Kd (HLA-B*40:01 [6]; [10]): 2.01 µM; Kd (HLA-B*45:01; [10]): 0.121 µM

**Q.** How did the Kd (HLA-B*18:01 [4]; [10]) turn out when QESLTTTSTA was run?
**A.** ≥ 70.5 µM

**Q.** What about the Kd (HLA-B*44:02 [5]; [10]) of the same sequence?
**A.** 7.11 µM

**Q.** What about the Kd (HLA-B*40:02; [10]) of the same sequence?
**A.** 0.146 µM

**Q.** And the Kd (HLA-B*44:03; [10])?
**A.** 0.682 µM

**Q.** What about the Kd (HLA-B*40:01 [6]; [10]) of the same sequence?
**A.** 10.2 µM

**Q.** And the Kd (HLA-B*45:01; [10])?
**A.** 0.0396 µM

**Q.** With REIGSLLHGL as the sequence, how does the Kd (HLA-B*18:01 [4]; [11]) read?
**A.** ≥ 30.4 µM

**Q.** What about the Kd (HLA-B*44:02 [5]; [11]) of the same sequence?
**A.** 0.764 µM

**Q.** And the Kd (HLA-B*40:02; [11])?
**A.** 0.00584 µM

**Q.** What about the Kd (HLA-B*44:03; [11]) of the same sequence?
**A.** 0.878 µM

**Q.** And the Kd (HLA-B*40:01 [6]; [11])?
**A.** 9.19 µM

**Q.** What about the Kd (HLA-B*45:01; [11]) of the same sequence?
**A.** 2.75 µM

**Q.** RERVNINIV was tested. Which Kd (HLA-B*18:01 [4]; [10]) did it give?
**A.** ≥ 37.8 µM

**Q.** And the Kd (HLA-B*44:02 [5]; [10])?
**A.** ≥ 35.4 µM

**Q.** And the Kd (HLA-B*40:02; [10])?
**A.** 0.026 µM

**Q.** What about the Kd (HLA-B*44:03; [10]) of the same sequence?
**A.** ≥ 38.2 µM

**Q.** What about the Kd (HLA-B*40:01 [6]; [10]) of the same sequence?
**A.** 10.7 µM

**Q.** And the Kd (HLA-B*45:01; [10])?
**A.** 0.265 µM

**Q.** Which results are given for SEHTGKEIV?
**A.** Kd (HLA-B*18:01 [1]; [12]): 3.09 µM; Kd (HLA-B*44:02 [2]; [12]): ≥ 20 µM

**Q.** Which results are given for SPAAYVLPL?
**A.** Kd (HLA-B*15:42; [13]): ≥ 5 µM; Kd (HLA-B*83:01; [13]): 0.156 µM; Kd (HLA-B*45:06; [13]): ≥ 5 µM

**Q.** How did the Kd (HLA-B*15:42; [14]) turn out when SVMAIFYLR was run?
**A.** ≥ 5 µM

**Q.** What about the Kd (HLA-B*83:01; [14]) of the same sequence?
**A.** ≥ 5 µM

**Q.** What about the Kd (HLA-B*45:06; [14]) of the same sequence?
**A.** ≥ 5 µM

**Q.** Which results are given for TEFQSVTFTM?
**A.** Kd (HLA-B*18:01 [4]; [8]): 0.0328 µM; Kd (HLA-B*44:02 [5]; [8]): 1.16 µM; Kd (HLA-B*40:02; [8]): 0.126 µM; Kd (HLA-B*44:03; [8]): 0.636 µM; Kd (HLA-B*40:01 [6]; [8]): 1.57 µM; Kd (HLA-B*45:01; [8]): 13.6 µM

**Q.** TMRLRSEVL was tested. Which Kd (HLA-B*08:01) did it give?
**A.** 0.022 µM

**Q.** Which Kd (HLA-A*26:01) does the source give for TVKSFLNFY here?
**A.** 0.0072 µM

**Q.** What does the source list for VESSSKLWA?
**A.** Kd (HLA-B*18:01 [4]; [10]): 1.25 µM; Kd (HLA-B*44:02 [5]; [10]): 3.34 µM; Kd (HLA-B*40:02; [10]): 3.16 µM; Kd (HLA-B*44:03; [10]): 1.6 µM; Kd (HLA-B*40:01 [6]; [10]): ≥ 42.2 µM; Kd (HLA-B*45:01; [10]): 0.267 µM

**Q.** Which results are given for VPRPRFSAL?
**A.** Kd (HLA-B*15:42; [15]): ≥ 5 µM; Kd (HLA-B*83:01; [15]): 0.106 µM; Kd (HLA-B*45:06; [15]): ≥ 20 µM

**Q.** Which results are given for YDFVLVGPC?
**A.** Kd (HLA-B*18:01 [4]; [16]): ≥ 24 µM; Kd (HLA-B*44:02 [5]; [16]): 1 µM; Kd (HLA-B*40:02; [16]): 0.836 µM; Kd (HLA-B*44:03; [16]): 6.83 µM; Kd (HLA-B*40:01 [6]; [16]): 3.34 µM; Kd (HLA-B*45:01; [16]): 7.22 µM

**Q.** For YDQLLDSSL, which Kd (HLA-B*18:01 [4]; [11]) is on record?
**A.** 15.4 µM

**Q.** And the Kd (HLA-B*44:02 [5]; [11])?
**A.** ≥ 26.5 µM

**Q.** And the Kd (HLA-B*40:02; [11])?
**A.** 0.273 µM

**Q.** And the Kd (HLA-B*44:03; [11])?
**A.** ≥ 78.1 µM

**Q.** And the Kd (HLA-B*40:01 [6]; [11])?
**A.** 9.99 µM

**Q.** And the Kd (HLA-B*45:01; [11])?
**A.** ≥ 77.7 µM
